Assay results as given in patent publication US20120108492A1, “LIGAND-SPECIFIC NON-ANTIBODY COMPOUNDS THAT INHIBIT CR2 ACTIVATION AND METHODS OF USE THEREOF” (The Regents of the University of Colorado, priority 2008, published 2012).

Key:
Type in all cases: binding
anti-CR2 SCR1-2 mAb 629 = experiment: MBP-CR2 SCR1-2-629 mAb ELISA; conditions: mutant MBP-CR2 SCR1-2 relative to wild-type; for % 629 mAb Bindng: plate-bound 629 mAb
From the text: The excellent correlation observed between our cell-binding studies and the ELISA analyses provides proof-of-principle that the MBP-CR2 SCR1-2 ELISA is an effective means of characterizing CR2-ligand interactions. […] See Asokan et al. (2006) J Immunol 177:383-94; Guthridge et al. (2001) J Immunol 167:5758-66; Young et al. (2007) J Biol Chem 282:36614-36625. […] This epitope overlaps extensively with the binding surface on CR2 described above for EBV gp350, and also with the previously described binding sites for C3dg and C3d. Hannan et al. (2005) J Mol Biol 346:845-58; and Young et al. (2007) J Biol Chem 282:36614-36625.
(§1) After coating, the plates were blocked using 0.1% BSA in a PBS solution, pH 7.4 for one hour at room temperature. The plates were then washed, and incubated with either wild-type or mutant MBP-CR2 SCR1-2, at concentrations ranging from 0.03125-2.0 μg/ml in PBS for one hour at room temperature. After further washing, wild-type or mutant MBP-CR2 binding was detected using commercially available horseradish peroxidase-conjugated anti-MBP mAb (New England Biolabs) according to the manufacturer's instructions.

EBV gp350 = EBV gp350 (Epstein-Barr virus, UniProt P03200); experiment: MBP-CR2 SCR1-2 mutant-EBV gp350 ELISA; parameters: DNA corresponding to residues 1-470 of EBV gp350/220; E. coli biotin carboxyl carrier protein (BCCP) fragment, residues 70-156; hexa-histidine (C); made in house; host or cells: human embryonic kidney 293f freestyle cells (pSecTag2/Hygro B); conditions: mutant MBP-CR2 SCR1-2
Protocol: See Martin et al. (1991) J Exp Med 174:1299-311; Young et al. (2007) J Biol Chem 282:36614-36625; Guthridge et al. (2001) Biochemistry 40:5931-41; and Sarrias et al. (2001) J Immunol 167:1490-9. […] Young et al. (2007) J Biol Chem 282:36614-36625.
as §1

[1] = system: anti-CR2 SCR1-2 monoclonal antibody 171; experiment: MBP-CR2 SCR1-2-171 mAb ELISA; conditions: mutant MBP-CR2 SCR1-2 relative to wild-type; for % 171 mAb Binding: plate-bound 171 mAb
Protocol: See Asokan et al. (2006) J Immunol 177:383-94; Guthridge et al. (2001) J Immunol 167:5758-66; Young et al. (2007) J Biol Chem 282:36614-36625. […] Hannan et al. (2005) J Mol Biol 346:845-58; and Young et al. (2007) J Biol Chem 282:36614-36625.
as §1

Sequence of EBV gp350 (P03200 1-470): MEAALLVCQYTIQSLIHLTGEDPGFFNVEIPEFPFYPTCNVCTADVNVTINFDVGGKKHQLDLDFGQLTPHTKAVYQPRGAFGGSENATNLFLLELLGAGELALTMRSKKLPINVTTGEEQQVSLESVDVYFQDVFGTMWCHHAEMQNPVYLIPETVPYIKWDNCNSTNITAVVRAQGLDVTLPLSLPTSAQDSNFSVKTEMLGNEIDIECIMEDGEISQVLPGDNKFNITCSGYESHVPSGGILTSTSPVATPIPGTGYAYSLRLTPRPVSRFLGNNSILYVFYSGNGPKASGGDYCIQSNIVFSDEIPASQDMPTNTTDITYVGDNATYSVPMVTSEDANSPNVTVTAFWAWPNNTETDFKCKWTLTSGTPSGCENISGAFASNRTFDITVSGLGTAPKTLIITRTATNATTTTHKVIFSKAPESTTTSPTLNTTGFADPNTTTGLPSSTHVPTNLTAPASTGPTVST

Molecule	Weighting (629 mAb) (anti-CR2 SCR1-2 mAb 629)	% 629 mAb Bindng (anti-CR2 SCR1-2 mAb 629) [%]	EBV gp350 binding relative to wild-type CR2 (EBV gp350)	Weighting (171 mAb) [1]	% 171 mAb Binding [1] [%]
R28A: single-site mutant of recombinant MBP-CR2 SCR1-2 (protein, left off: large carriers; small tags and cut ends) ISCGSPPPILNGRISYYSTPIAVGTVIAYSCSGTFRLIGEKSLLCITKDKVDGTWDKPAPKCEYFNKYSSCPEPIVPGGYKIRGSTPYRHGDSVTFACKTNFSMNGNKSVWCQANNMWGPTRLPTCVSVFPLE	++++ (++++>90%)	103.1	significantly decreased capacity	++++ (++++>90%)	103.5
Y68A: single-site mutant of recombinant MBP-CR2 SCR1-2 (protein, left off: large carriers; small tags and cut ends) ISCGSPPPILNGRISYYSTPIAVGTVIRYSCSGTFRLIGEKSLLCITKDKVDGTWDKPAPKCEYFNKASSCPEPIVPGGYKIRGSTPYRHGDSVTFACKTNFSMNGNKSVWCQANNMWGPTRLPTCVSVFPLE	++++ (++++>90%)	102.3		++++ (++++>90%)	92.1
K57A: single-site mutant of recombinant MBP-CR2 SCR1-2 (protein, left off: large carriers; small tags and cut ends) ISCGSPPPILNGRISYYSTPIAVGTVIRYSCSGTFRLIGEKSLLCITKDKVDGTWDAPAPKCEYFNKYSSCPEPIVPGGYKIRGSTPYRHGDSVTFACKTNFSMNGNKSVWCQANNMWGPTRLPTCVSVFPLE	+++ (+++89.9-70%)	85.5	significantly decreased capacity	++++ (++++>90%)	91.9
K41A: single-site mutant of recombinant MBP-CR2 SCR1-2 (protein, left off: large carriers; small tags and cut ends) ISCGSPPPILNGRISYYSTPIAVGTVIRYSCSGTFRLIGEASLLCITKDKVDGTWDKPAPKCEYFNKYSSCPEPIVPGGYKIRGSTPYRHGDSVTFACKTNFSMNGNKSVWCQANNMWGPTRLPTCVSVFPLE	++++ (++++>90%)	97.5	significantly decreased capacity	++++ (++++>90%)	97.3
R13A: single-site mutant of recombinant MBP-CR2 SCR1-2 (protein, left off: large carriers; small tags and cut ends) ISCGSPPPILNGAISYYSTPIAVGTVIRYSCSGTFRLIGEKSLLCITKDKVDGTWDKPAPKCEYFNKYSSCPEPIVPGGYKIRGSTPYRHGDSVTFACKTNFSMNGNKSVWCQANNMWGPTRLPTCVSVFPLE	++++ (++++>90%)	108.1		− (−19.9-0%)	15.6
Y64A: single-site mutant of recombinant MBP-CR2 SCR1-2 (protein, left off: large carriers; small tags and cut ends) ISCGSPPPILNGRISYYSTPIAVGTVIRYSCSGTFRLIGEKSLLCITKDKVDGTWDKPAPKCEAFNKYSSCPEPIVPGGYKIRGSTPYRHGDSVTFACKTNFSMNGNKSVWCQANNMWGPTRLPTCVSVFPLE	+++ (+++89.9-70%)	82.0		− (−19.9-0%)	5.8
T34A: single-site mutant of recombinant MBP-CR2 SCR1-2 (protein, left off: large carriers; small tags and cut ends) ISCGSPPPILNGRISYYSTPIAVGTVIRYSCSGAFRLIGEKSLLCITKDKVDGTWDKPAPKCEYFNKYSSCPEPIVPGGYKIRGSTPYRHGDSVTFACKTNFSMNGNKSVWCQANNMWGPTRLPTCVSVFPLE	+++ (+++89.9-70%)	84.9		− (−19.9-0%)	12.4
N11A: single-site mutant of recombinant MBP-CR2 SCR1-2 (protein, left off: large carriers; small tags and cut ends) ISCGSPPPILAGRISYYSTPIAVGTVIRYSCSGTFRLIGEKSLLCITKDKVDGTWDKPAPKCEYFNKYSSCPEPIVPGGYKIRGSTPYRHGDSVTFACKTNFSMNGNKSVWCQANNMWGPTRLPTCVSVFPLE	+++ (+++89.9-70%)	87.5		+ (+39.9-20%)	24.1
S32A: single-site mutant of recombinant MBP-CR2 SCR1-2 (protein, left off: large carriers; small tags and cut ends) ISCGSPPPILNGRISYYSTPIAVGTVIRYSCAGTFRLIGEKSLLCITKDKVDGTWDKPAPKCEYFNKYSSCPEPIVPGGYKIRGSTPYRHGDSVTFACKTNFSMNGNKSVWCQANNMWGPTRLPTCVSVFPLE	++++ (++++>90%)	117.8		+++ (+++89.9-70%)	77.5
T86A: single-site mutant of recombinant MBP-CR2 SCR1-2 (protein, left off: large carriers; small tags and cut ends) ISCGSPPPILNGRISYYSTPIAVGTVIRYSCSGTFRLIGEKSLLCITKDKVDGTWDKPAPKCEYFNKYSSCPEPIVPGGYKIRGSAPYRHGDSVTFACKTNFSMNGNKSVWCQANNMWGPTRLPTCVSVFPLE	+++ (+++89.9-70%)	85.6		+++ (+++89.9-70%)	89.6
R36A: single-site mutant of recombinant MBP-CR2 SCR1-2 (protein, left off: large carriers; small tags and cut ends) ISCGSPPPILNGRISYYSTPIAVGTVIRYSCSGTFALIGEKSLLCITKDKVDGTWDKPAPKCEYFNKYSSCPEPIVPGGYKIRGSTPYRHGDSVTFACKTNFSMNGNKSVWCQANNMWGPTRLPTCVSVFPLE	++++ (++++>90%)	113.9		− (−19.9-0%)	19.8
K50A: single-site mutant of recombinant MBP-CR2 SCR1-2 (protein, left off: large carriers; small tags and cut ends) ISCGSPPPILNGRISYYSTPIAVGTVIRYSCSGTFRLIGEKSLLCITKDAVDGTWDKPAPKCEYFNKYSSCPEPIVPGGYKIRGSTPYRHGDSVTFACKTNFSMNGNKSVWCQANNMWGPTRLPTCVSVFPLE	+++ (+++89.9-70%)	87.5		++++ (++++>90%)	94.4
M117A: single-site mutant of recombinant MBP-CR2 SCR1-2 (protein, left off: large carriers; small tags and cut ends) ISCGSPPPILNGRISYYSTPIAVGTVIRYSCSGTFRLIGEKSLLCITKDKVDGTWDKPAPKCEYFNKYSSCPEPIVPGGYKIRGSTPYRHGDSVTFACKTNFSMNGNKSVWCQANNAWGPTRLPTCVSVFPLE	++++ (++++>90%)	113.8		++++ (++++>90%)	97.2
